According to patent publication US20250368754A1 (KANAPH THERAPEUTICS, published 2025):

Key:
human LTβR on A375 cells [1] = molecular target: T1, human LTβR on A375 cells (human, UniProt P36941 31-435); test: flow cytometry on A375 cells, serial dilution from 500 nM, anti-human IgG detection
T1 construct: whole, on cells; Endogenous receptor of a human cell line; also called LTβR expressing A375 cells; LTβR expressing cell line
Protocol: Specifically, the A375 cell line was prepared by suspending in a FACS buffer solution at 1×10⁵ cells/100 μL, and treated with 100 μL each of T3.01, T3.07, T3.04, and T3.18 prepared by suspending at 500 nM and diluting by serial dilution. The cells were washed twice with a FACS buffer solution. The cells were stained with an anti-human IgG antibody (Biolegend). The expression ratio of the stained cells was measured using BD LSR and analyzed using FlowJo software.

[2] = molecular target: T2, human FAP on HEK293-hFAP cells (human, UniProt Q12884 1-760); test: flow cytometry on HEK293-hFAP cells, 1 µg protein, anti-human IgG detection
T2 construct: whole, on cells; also called human FAP-expressing cell line
T2 sequence (looked up): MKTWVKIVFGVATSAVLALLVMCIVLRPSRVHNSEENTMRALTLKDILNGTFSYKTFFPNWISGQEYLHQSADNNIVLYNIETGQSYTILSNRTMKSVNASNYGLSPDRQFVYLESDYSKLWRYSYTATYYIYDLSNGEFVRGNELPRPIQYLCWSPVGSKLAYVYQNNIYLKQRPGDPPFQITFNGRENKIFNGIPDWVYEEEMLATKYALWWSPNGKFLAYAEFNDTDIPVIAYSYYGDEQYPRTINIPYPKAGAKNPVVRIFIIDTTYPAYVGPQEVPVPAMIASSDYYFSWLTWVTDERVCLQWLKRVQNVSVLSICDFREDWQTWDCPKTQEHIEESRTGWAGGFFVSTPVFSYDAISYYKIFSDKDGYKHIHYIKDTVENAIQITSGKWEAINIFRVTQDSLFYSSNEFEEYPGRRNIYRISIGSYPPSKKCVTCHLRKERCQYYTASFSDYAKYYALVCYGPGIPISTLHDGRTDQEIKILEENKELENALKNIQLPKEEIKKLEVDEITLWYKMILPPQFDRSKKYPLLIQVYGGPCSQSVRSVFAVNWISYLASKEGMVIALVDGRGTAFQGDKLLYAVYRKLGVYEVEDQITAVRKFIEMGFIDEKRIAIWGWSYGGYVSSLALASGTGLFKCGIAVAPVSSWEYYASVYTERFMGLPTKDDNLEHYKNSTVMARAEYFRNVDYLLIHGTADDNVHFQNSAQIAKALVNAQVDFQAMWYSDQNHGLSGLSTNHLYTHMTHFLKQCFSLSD
Protocol: (§1) Specifically, the cell line was prepared by suspending in a FACS buffer solution at 1×10⁵ cells/100 μL, and treated with 1 μg each of T3.10, T3.01, T3.05, T3.06, T3.14, and T3.18. The cells were washed twice with a FACS buffer solution. The cells were stained with an anti-human IgG antibody (Biolegend). The negative control sample was stained only with an anti-human IgG antibody (Biolegend). The expression ratio of the stained cells was measured using BD LSR and analyzed using FlowJo software.

[3] = molecular target: T3, recombinant human lymphotoxin beta receptor (LTβR) (human, UniProt P36941 28-227, limits assumed); test: SPR, human LTβR immobilised on CM5, fusion protein as analyte, 1:1 binding model
T3 construct: neither construct is described; also called human LTβR; recombinant human LTβR protein
Protocol: Specifically, the surface of the CM5 chip was activated with a 1:1 mixture of […], and 5 μg/mL of human LTβR was immobilized for 60 seconds at a rate of 10 μL/min. The remaining active ester groups were blocked with 1 M ethanolamine. […] The diluted fusion proteins were reacted at a rate of 30 μL/min. The association and dissociation times were 180 seconds and 400 seconds, respectively. After the dissociation step, stabilization was performed for 60 seconds, and then the regeneration step was performed for 30 seconds with a 10 mM glycine pH 1.5 solution at a rate of 30 μL/min.

[4] = molecular target: T2, human FAP on HEK293-hFAP cells; test: flow cytometry on HEK293-hFAP cells, 1 ug protein per 1x10^5 cells, anti-human IgG detection (axis TMEkine-PE)
Protocol: as §1

[5] = molecular target: T4, recombinant human herpes virus entry mediator (HVEM) (human, UniProt Q92956 39-202); test: SPR, human HVEM immobilised on the chip (title: PRO121; 6ug/ml human HVEM pH5.5), T3.18 as analyte 0.78125-100 nM
T4 construct: neither construct is described; also called human HVEM; recombinant human HVEM protein (R&D systems)
T4 sequence (looked up): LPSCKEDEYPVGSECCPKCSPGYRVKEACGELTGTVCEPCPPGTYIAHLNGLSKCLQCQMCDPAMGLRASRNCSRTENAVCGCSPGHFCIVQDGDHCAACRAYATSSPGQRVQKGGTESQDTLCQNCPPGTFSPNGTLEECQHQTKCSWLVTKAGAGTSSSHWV
Protocol: (§2) Specifically, the surface of the CM5 chip was activated with a 1:1 mixture of […], and 5 to 6 μg/mL of human HVEM was immobilized for 60 seconds at a rate of 10 μL/min. The remaining active ester groups were blocked with 1 M ethanolamine. T3.01, T3.07, T3.09, T3.14, and T3.18 were each diluted to 100 nM in 1×HBS-EP+buffer solution and diluted by serial dilution. The diluted fusion proteins were reacted at a rate of 30 μL/min. The association and dissociation times were 180 seconds and 400 seconds, respectively. After the dissociation step, stabilization was performed for 60 seconds, and then the regeneration step was performed for 30 seconds with a 10 mM glycine pH 1.5 solution at a rate of 30 μL/min.

human LTβR on A375 cells [6] = molecular target: T1, human LTβR on A375 cells; test: cell-based or functional assay
human DcR3 = molecular target: T5, human DcR3 (human, UniProt O95407 30-300); test: SPR, human DcR3 immobilised on CM5, fusion protein as analyte, 1:1 binding model
T5 construct: also called LIGHT receptor DcR3
T5 sequence (looked up): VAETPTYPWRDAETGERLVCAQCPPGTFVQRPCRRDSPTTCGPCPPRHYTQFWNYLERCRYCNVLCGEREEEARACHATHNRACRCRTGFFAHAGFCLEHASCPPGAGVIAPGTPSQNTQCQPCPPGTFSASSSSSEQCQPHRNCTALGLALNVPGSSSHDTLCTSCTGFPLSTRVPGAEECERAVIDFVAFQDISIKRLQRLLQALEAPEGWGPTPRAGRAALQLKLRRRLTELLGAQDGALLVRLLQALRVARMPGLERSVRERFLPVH
Protocol: as §2, with “DcR3” for “HVEM”, “50 nM or 200” for “100”

human LTβR on A375 cells [7] = molecular target: T1, human LTβR on A375 cells; test: flow cytometry on A375 cells, anti-human IgG detection (axis TMEkine-PE); concentration not printed on the sheet
[8] = molecular target: T3, recombinant human lymphotoxin beta …; test: sandwich ELISA: plate coated with recombinant human LTbR 1 ug/mL, fusion protein from 1 nM in serial dilution, detected with biotinylated recombinant human FAP and streptavidin conjugate, OD 450 nm
Protocol: (i) The recombinant human LTβR protein was suspended at 1 μg/mL, dispensed in a 96-well immune plate, and treated for 24 hours. [0380] (ii) The wells were washed with a wash solution, and then blocking was performed for 1 hour with 1% BSA (bovine serum albumin, Sigma) solution. [0381] (iii) The wells were washed with a wash solution, and then T3.01, T3.14, T3.16, T3.17, T3.18 and T3.10, or T3.05, T3.06, T3.04, T3.14 and T3.10 were suspended at 1 nM and diluted by serial dilution. The wells were treated with the diluted T3.01, T3.14, T3.16, T3.17, T3.18 and T3.10, or T3.05, T3.06, T3.04, T3.14 and T3.10 for 2 hours. […] (iv) The wells were washed with a wash solution, and then treated with the human recombinant FAP-biotin diluted at 0.5 μg/mL for 2 hours. [0383] (v) The wells were washed with a wash solution, and then treated with streptavidin-RP for 20 minutes. [0384] (vi) The wells were washed with a wash solution, and then treated with a substrate solution for 20 minutes. [0385] (vii) The wells were treated with a stop solution, and the absorbance was measured at 450 nm.

[9] = molecular target: T4, recombinant human herpes virus entry …; test: sandwich ELISA: plate coated with recombinant human HVEM 1 ug/mL, fusion protein from 1 nM in serial dilution, detected with biotinylated recombinant human FAP and streptavidin conjugate, OD 450 nm
Protocol: Considering that LIGHT of the fusion protein must bind to the herpes virus entry mediator (HVEM) for the action, it was confirmed that T3.01 binds to the recombinant human HVEM, as follows: [0370] (i) The recombinant human HVEM protein (R&D systems) was suspended at 1 μg/mL, dispensed in a 96-well immune plate, and treated for 24 hours. [0371] (ii) The wells were washed with a wash solution, and then blocking was performed for 1 hour with 1% BSA (bovine serum albumin, Sigma) solution. [0372] (iii) The wells were washed with a wash solution, and then T3.01, T3.14, T3.16, T3.17, T3.18 and T3.10, or T3.05, T3.06, T3.04, T3.14 and T3.10 were suspended at 1 nM and diluted by serial dilution. The wells were treated with the diluted T3.01, T3.14, T3.16, T3.17, T3.18 and T3.10, or T3.05, T3.06, T3.04, T3.14 and T3.10 for 2 hours. [0373] (iv) The wells were washed with a wash solution, and then treated with the human recombinant FAP-biotin diluted at 0.5 μg/mL for 2 hours. [0374] (v) The wells were washed with a wash solution, and then treated with streptavidin-RP for 20 minutes. [0375] (vi) The wells were washed with a wash solution, and then treated with a substrate solution for 20 minutes. [0376] (vii) The wells were treated with a stop solution, and the absorbance was measured at 450 nm.

T1 sequence (P36941 31-435): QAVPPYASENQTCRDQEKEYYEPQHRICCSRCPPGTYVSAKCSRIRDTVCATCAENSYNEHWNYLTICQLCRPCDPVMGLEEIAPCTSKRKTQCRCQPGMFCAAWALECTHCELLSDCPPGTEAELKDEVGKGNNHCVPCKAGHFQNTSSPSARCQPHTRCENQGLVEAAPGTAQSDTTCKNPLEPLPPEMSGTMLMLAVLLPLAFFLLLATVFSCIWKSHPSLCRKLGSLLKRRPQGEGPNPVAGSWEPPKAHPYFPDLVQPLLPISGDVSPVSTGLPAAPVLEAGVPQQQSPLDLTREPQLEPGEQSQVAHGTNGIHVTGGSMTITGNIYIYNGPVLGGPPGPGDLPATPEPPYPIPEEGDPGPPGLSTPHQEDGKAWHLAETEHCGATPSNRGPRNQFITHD
T3 sequence (P36941 28-227 limits assumed): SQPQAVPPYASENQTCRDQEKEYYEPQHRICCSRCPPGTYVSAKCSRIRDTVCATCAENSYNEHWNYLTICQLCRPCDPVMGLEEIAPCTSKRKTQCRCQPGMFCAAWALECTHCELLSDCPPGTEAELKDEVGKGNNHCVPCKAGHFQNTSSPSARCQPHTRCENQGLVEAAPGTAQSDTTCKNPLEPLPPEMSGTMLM

B1: T3.18 (anti-hu FAP/hu scLIGHT(GGSG)-LTb2, hu IgG1 DANG) (bispecific antibody)
heavy: QVQLVQSGAEVKKPGASVKVSCKTSRYTFTEYTIHWVRQAPGQRLEWIGGINPNNGIPNYNQKFKGRVTITVDTSASTAYMELSSLRSEDTAVYYCARRRIAYGYDEGHAMDYWGQGTLVTVSSASTKGPSVFPLAPSSKSTSGGTAALGCLVKDYFPEPVTVSWNSGALTSGVHTFPAVLQSSGLYSLSSVVTVPSSSLGTQTYICNVNHKPSNTKVDKKVEPKSCDKTHTCPPCPAPELLGGPSVFLFPPKPKDTLMISRTPEVTCVVVAVSHEDPEVKFNWYVDGVEVHNAKTKPREEQYGSTYRVVSVLTVLHQDWLNGKEYKCKVSNKALPAPIEKTISKAKGQPREPQVYTLPPSRDELTKNQVSLWCLVKGFYPSDIAVEWESNGQPENNYKTTPPVLDSDGSFFLYSKLTVDKSRWQQGNVFSCSVMHEALHNHYTQKSLSLSPGK
light: not shown
chain: not shown
notes: Knob-into-hole; LIGHT-LTb2 heterotrimer with GGSG linker after LIGHT
percent of cells bound (human LTβR on A375 cells [1]): ≥ 96% | percent of cells bound [2]: ≥ 99% | Kd [3]: 0.245 nM | koff [3]: 0.000315 s⁻¹ | kon [3]: 1.29e+06 M⁻¹ s⁻¹ | percent of cells in the positive gate [4]: 99.8% | binding result [5]: no binding (tested: 100 nM) | IL-8 secretion of A375 cells, EC50 (FIG. 15b) (human LTβR on A375 cells [6]): 0.0778 nM | Kd (human DcR3): 7.93 nM | koff (human DcR3): 0.0017 s⁻¹ | kon (human DcR3): 214000 M⁻¹ s⁻¹

B2: T3.10 (anti-hu FAP/null, hu IgG1 DANG) (antibody)
heavy: B1 heavy
light: not shown
chain: not shown
notes: One-armed anti-FAP knob-into-hole antibody without LIGHT; used as the control for LIGHT activity
percent of cells bound [2]: ≥ 99% | percent of cells in the positive gate [4]: 99.3% | binding result (human LTβR on A375 cells [7]): no binding | binding result [8]: no binding (tested: 1000 pM) | binding result [9]: no binding (tested: 1000 pM)
